Data as given in paper PMC10276003, “Regulation of microRNA expression by the adaptor protein GRB2” (Scientific Reports, 2023).

Columns and labels:
Details in all cases: both partners purified
[1] = target: T1, AGO2 (purified as GST-AGO2, GST cleaved) (human, UniProt Q9UKV8 1-859, labelled with Atto 488 NHS ester); assay: MST; 2.29 to 75,000 nM unlabelled DICER1^CT with 100 nM Atto 488-labelled AGO2, no GRB2; 20 mM HEPES, 150 mM NaCl, 1 mM TCEP pH 7.5
T1 construct: Argonaute 2 (AGO2), human; source: E. coli BL21(DE3), purified (RNase, glutathione superflow resin, Superdex 75; GST cleaved with thrombin)

[2] = target: T2, AGO2 pre-incubated with GRB2 (GRB2-AGO2 complex) (human | , UniProt Q9UKV8 1-859; P62993 1-217, labelled with Atto 488 NHS ester); assay: MST; 2.29 to 75,000 nM unlabelled DICER1^CT with 100 nM Atto 488-labelled AGO2 pre-incubated with 25 uM GRB2; 20 mM HEPES, 150 mM NaCl, 1 mM TCEP pH 7.5
T2 construct: Argonaute 2 (AGO2), human; as m20; as m12; The complex was not isolated: labelled AGO2 (100 nM) stood with an excess of GRB2; source: E. coli BL21(DE3), both purified; AGO2 incubated with 25 or 50 uM GRB2 before the MST

[3] = target: T2, AGO2 pre-incubated with GRB2 (GRB2-AGO2 …); assay: MST; 2.29 to 75,000 nM unlabelled DICER1^CT with 100 nM Atto 488-labelled AGO2 pre-incubated with 50 uM GRB2; 20 mM HEPES, 150 mM NaCl, 1 mM TCEP pH 7.5
[4] = target: T3, His-tagged GRB2 (UniProt P62993 1-217); assay: ITC; 1.2 mM peptide titrated into 80 uM His-tagged GRB2; 25 C; 20 mM Tris-HCl pH 8, 150 mM NaCl, 1 mM beta-mercaptoethanol
T3 construct: For the MST with DICER1^CT and AGO2 the text writes only GRB2; also called His-GRB2

[5] = target: T3, His-tagged GRB2; assay: ITC; 500 uM MBP-tagged AGO2 domain titrated into 20 uM His-tagged GRB2; 25 C; 20 mM Tris-HCl pH 8, 150 mM NaCl, 10% glycerol, 1 mM beta-mercaptoethanol; one-site model with n fixed at 1

T3 sequence (P62993 whole entry): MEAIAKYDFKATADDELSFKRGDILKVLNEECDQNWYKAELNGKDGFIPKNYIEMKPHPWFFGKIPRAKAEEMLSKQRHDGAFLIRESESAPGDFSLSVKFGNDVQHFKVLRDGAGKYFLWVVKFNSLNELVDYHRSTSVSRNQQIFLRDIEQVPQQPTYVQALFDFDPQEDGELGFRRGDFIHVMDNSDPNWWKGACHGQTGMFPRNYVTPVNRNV
T2 sequence (Q9UKV8 whole entry, chain 1 of 2): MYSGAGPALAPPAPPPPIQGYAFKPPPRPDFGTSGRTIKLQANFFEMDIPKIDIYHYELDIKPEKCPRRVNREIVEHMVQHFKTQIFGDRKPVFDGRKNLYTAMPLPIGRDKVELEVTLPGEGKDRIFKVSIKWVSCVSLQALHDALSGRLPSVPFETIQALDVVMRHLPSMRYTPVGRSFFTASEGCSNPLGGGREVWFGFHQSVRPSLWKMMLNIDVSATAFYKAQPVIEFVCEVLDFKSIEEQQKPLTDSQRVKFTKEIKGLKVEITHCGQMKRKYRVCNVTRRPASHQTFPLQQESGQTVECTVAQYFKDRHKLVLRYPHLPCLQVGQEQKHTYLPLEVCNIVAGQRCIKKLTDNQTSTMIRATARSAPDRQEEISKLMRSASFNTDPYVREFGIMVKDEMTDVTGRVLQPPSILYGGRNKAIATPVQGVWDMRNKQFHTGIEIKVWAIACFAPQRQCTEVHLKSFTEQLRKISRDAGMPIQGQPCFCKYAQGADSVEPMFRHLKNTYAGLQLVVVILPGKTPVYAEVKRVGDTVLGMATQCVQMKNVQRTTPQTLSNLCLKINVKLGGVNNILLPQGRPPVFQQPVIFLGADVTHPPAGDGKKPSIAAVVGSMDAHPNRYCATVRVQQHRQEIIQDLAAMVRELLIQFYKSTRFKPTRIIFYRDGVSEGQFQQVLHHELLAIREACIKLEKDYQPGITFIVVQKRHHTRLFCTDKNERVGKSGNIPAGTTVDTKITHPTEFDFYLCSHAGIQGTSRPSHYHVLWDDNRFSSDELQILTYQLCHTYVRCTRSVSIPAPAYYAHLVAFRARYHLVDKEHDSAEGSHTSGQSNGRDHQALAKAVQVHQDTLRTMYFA
T2 sequence (P62993 whole entry, chain 2 of 2): as the sequence (P62993 whole entry) above
T1 sequence (Q9UKV8 whole entry): as the sequence (Q9UKV8 whole entry, chain 1 of 2) above

B1: C-terminal domain of DICER1 (DICER1^CT, residues 1276-1922) (domain or fragment, UniProt Q9UPY3 1276-1922, looked up)
chain: DSEQSPSIGYSSRTLGPNPGLILQALTLSNASDGFNLERLEMLGDSFLKHAITTYLFCTYPDAHEGRLSYMRSKKVSNCNLYRLGKKKGLPSRMVVSIFDPPVNWLPPGYVVNQDKSNTDKWEKDEMTKDCMLANGKLDEDYEEEDEEEESLMWRAPKEEADYEDDFLEYDQEHIRFIDNMLMGSGAFVKKISLSPFSTTDSAYEWKMPKKSSLGSMPFSSDFEDFDYSSWDAMCYLDPSKAVEEDDFVVGFWNPSEENCGVDTGKQSISYDLHTEQCIADKSIADCVEALLGCYLTSCGERAAQLFLCSLGLKVLPVIKRTDREKALCPTRENFNSQQKNLSVSCAAASVASSRSSVLKDSEYGCLKIPPRCMFDHPDADKTLNHLISGFENFEKKINYRFKNKAYLLQAFTHASYHYNTITDCYQRLEFLGDAILDYLITKHLYEDPRQHSPGVLTDLRSALVNNTIFASLAVKYDYHKYFKAVSPELFHVIDDFVQFQLEKNEMQGMDSELRRSEEDEEKEEDIEVPKAMGDIFESLAGAIYMDSGMSLETVWQVYYPMMRPLIEKFSANVPRSPVRELLEMEPETAKFSPAERTYDGKVRVTVEVVGKGKFKGVGRSYRIAKSAAARRALRSLKANQPQVPNS
modifications: labelled with Atto 488 NHS ester in the MST with GRB2; unlabelled in the MST with AGO2
notes: DICER1, residues 1276-1922, with the RNase III domains; also called DICER1 C-terminal region
Q: How did the Kd [1] turn out when B1 was run?
A: Its Kd is 17.6 ± 1.7 µM.

Q: What about the Kd [2] of the same binder?
A: Its Kd is 7.9 ± 1.3 µM.

Q: What about the Kd [3] of the same binder?
A: The Kd was 4.6 ± 0.6 µM.

B2: PRM-containing peptide from the AGO2 PAZ domain (residues 317-333) (peptide)
peptide: KLVLRYPHLPCLQVGQE
notes: Argonaute 2 (AGO2), human, PAZ domain, residues 317-333; also called peptide spanning the proline-rich motif 323PHLP326
Q: With B2 as the binder, how does the Kd [4] read?
A: Its Kd is 4.27 ± 1.17 µM.

B3: MBP-tagged AGO2 PAZ domain (residues 235-348) (domain or fragment)
chain: not shown
notes: Argonaute 2 (AGO2), human, PAZ domain, residues 235-348, in pMAL-c5x; The methods say that RNA was left in the PAZ preparation; also called MBP-PAZ; PAZ WT; source: E. coli BL21(DE3), purified (MBPTrap HP, SEC); not shown: MBP, N-terminal, kept
Q: Which results are given for B3?
A: Kd [5]: 0.585 ± 0.061 µM; stoichiometry N [5]: 1
